Source: paper PMC12509757 (2025)

Target: BSA (Bos taurus (Bovine), UniProt P02769)
Test: co-sedimentation (ultracentrifugation pelleting, immunoblot), BSA in place of microtubules as negative control

BSA, sequence (P02769 25-607): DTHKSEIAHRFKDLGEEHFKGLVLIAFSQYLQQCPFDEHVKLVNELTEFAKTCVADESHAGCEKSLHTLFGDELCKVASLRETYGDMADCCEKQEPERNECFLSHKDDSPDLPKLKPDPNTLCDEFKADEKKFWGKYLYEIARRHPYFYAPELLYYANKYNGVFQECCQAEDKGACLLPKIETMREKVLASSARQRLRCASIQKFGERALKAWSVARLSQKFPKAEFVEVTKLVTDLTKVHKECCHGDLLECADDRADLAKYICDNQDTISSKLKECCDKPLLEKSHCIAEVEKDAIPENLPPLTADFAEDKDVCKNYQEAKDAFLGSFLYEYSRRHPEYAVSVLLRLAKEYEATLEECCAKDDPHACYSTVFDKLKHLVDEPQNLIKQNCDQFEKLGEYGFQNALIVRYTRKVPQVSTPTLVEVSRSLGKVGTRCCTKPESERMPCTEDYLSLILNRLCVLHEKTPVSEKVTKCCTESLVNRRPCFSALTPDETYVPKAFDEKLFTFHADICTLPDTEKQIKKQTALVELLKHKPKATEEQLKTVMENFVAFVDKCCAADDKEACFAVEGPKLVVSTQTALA

binding result: no binding
B1: His GST BAR-PH (aa 1-388) of ARHGAP10, WT (protein)
chain: MGLQPLEFSDCYLDSPWFRERIRAHEAELERTNKFIKELIKDGKNLIAATKSLSVAQRKFAHSLRDFKFEFIGDAVTDDERCIDASLREFSNFLKNLEEQREIMALSVTETLIKPLEKFRKEQLGAVKEEKKKFDKETEKNYSLIDKHLNLSAKKKDSHLQEADIQVEQNRQHFYELSLEYVCKLQEIQERKKFEFVEPMLSFFQGMFTFYHQGHELAKDFNHYKMELQINIQNTRNRFEGTRSEVEELMNKIRQNPKDHKRASQFTAEGYLYVQEKRPAPFGSSWVKHYCMYRKAAKKFNMIPFEHRSGGKLGDGEVFFLKECTKRHTDSIDRRFCFDIEAADRPGVSLTMQAFSEEERKQWLEALGGKEALSHSFNTAIIPRPEGN
